Laboratory results as given in article doi:10.1101/2023.02.08.527602 (bioRxiv, 2023).

Biological target: Soluble SorCS2 (extracellular domain of SorCS2) (UniProt Q96PQ0 51-1078)
Experiment: SPR

Sequence of Soluble SorCS2 (extracellular domain of SorCS2) (Q96PQ0 51-1078): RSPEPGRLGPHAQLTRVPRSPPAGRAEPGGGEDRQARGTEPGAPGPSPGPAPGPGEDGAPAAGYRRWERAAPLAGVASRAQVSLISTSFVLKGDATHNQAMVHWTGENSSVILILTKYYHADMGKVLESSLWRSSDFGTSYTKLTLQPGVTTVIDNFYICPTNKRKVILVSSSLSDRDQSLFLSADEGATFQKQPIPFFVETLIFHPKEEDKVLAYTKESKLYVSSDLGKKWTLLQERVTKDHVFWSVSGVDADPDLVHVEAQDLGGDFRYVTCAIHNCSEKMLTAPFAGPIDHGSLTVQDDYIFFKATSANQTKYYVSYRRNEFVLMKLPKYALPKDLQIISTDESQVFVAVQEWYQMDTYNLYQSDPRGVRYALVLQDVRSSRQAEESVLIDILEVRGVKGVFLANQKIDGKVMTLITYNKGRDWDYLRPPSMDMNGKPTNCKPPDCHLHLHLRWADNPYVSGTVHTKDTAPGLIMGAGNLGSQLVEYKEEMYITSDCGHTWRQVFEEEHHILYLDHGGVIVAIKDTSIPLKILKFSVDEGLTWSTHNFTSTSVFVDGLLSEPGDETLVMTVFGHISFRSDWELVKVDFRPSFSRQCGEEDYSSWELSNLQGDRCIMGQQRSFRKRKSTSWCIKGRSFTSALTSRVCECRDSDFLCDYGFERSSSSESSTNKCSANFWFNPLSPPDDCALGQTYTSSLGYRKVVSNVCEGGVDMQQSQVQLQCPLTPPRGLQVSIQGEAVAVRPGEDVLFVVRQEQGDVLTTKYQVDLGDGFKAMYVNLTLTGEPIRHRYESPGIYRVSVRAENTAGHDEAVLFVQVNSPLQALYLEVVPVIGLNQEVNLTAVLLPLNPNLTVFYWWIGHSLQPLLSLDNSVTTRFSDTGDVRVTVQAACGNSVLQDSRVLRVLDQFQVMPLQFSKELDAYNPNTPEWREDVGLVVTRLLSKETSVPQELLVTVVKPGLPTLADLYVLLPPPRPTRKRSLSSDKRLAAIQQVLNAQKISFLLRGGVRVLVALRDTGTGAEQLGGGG

B1: human progranulin (hPGRN) used in SPR (ligand, UniProt P28799 18-593, looked up)
chain: TRCPDGQFCPVACCLDPGGASYSCCRPLLDKWPTTLSRHLGGPCQVDAHCSAGHSCIFTVSGTSSCCPFPEAVACGDGHHCCPRGFHCSADGRSCFQRSGNNSVGAIQCPDSQFECPDFSTCCVMVDGSWGCCPMPQASCCEDRVHCCPHGAFCDLVHTRCITPTGTHPLAKKLPAQRTNRAVALSSSVMCPDARSRCPDGSTCCELPSGKYGCCPMPNATCCSDHLHCCPQDTVCDLIQSKCLSKENATTDLLTKLPAHTVGDVKCDMEVSCPDGYTCCRLQSGAWGCCPFTQAVCCEDHIHCCPAGFTCDTQKGTCEQGPHQVPWMEKAPAHLSLPDPQALKRDVPCDNVSSCPSSDTCCQLTSGEWGCCPIPEAVCCSDHQHCCPQGYTCVAEGQCQRGSEIVAGLEKMPARRASLSHPRDIGCDQHTSCPVGQTCCPSLGGSWACCQLPHAVCCEDRQHCCPAGYTCNVKARSCEKEVVSAQPATFLARSPHVGVKDVECGEGHFCHDNQTCCRDNRQGWACCPYRQGVCCADRRHCCPAGFRCAARGTKCLRREAPRWDAPLRDPALRQLL
Work on B1 yielded a Kd of roughly 3 nM.
